Data as given in publication PMC6479836, “Interaction of Nerve Growth Factor β with Adiponectin and SPARC Oppositely Modulates its Biological Activity” (International Journal of Molecular Sciences, 2019).

T1: Recombinant murine full-length adiponectin (murine, UniProt Q60994 18-247)
T1 construct: also called fADPN; source: bought: Biovender Laboratory Medicine, Inc
T1 sequence (looked up): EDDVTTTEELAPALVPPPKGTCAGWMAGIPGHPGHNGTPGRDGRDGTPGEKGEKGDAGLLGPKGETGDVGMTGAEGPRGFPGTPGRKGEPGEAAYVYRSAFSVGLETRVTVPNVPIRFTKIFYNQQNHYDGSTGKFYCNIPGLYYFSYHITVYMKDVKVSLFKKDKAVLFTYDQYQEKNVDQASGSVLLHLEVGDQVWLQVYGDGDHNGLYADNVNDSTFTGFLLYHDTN

B1: Recombinant human platelet-derived growth factor-BB (PDGF-BB) (ligand, UniProt P01127 82-190, looked up)
chain: SLGSLTIAEPAMIAECKTRTEVFEISRRLIDRTNANFLVWPPCVEVQRCSGCCNNRNVQCRPTQVQLRPVQVRKIEIVRKKPIFKKATVTLEDHLACKCETVAAARPVT
notes: PDGF B chain, human, recombinant; The two copies follow from the printed name BB; source: bought: Wako Pure Chemical
B2: Nerve growth factor β (NGFβ) from mouse submaxillary glands (ligand, UniProt P01139 122-241, looked up)
chain: SSTHPVFHMGEFSVCDSVSVWVGDKTTATDIKGKEVTVLAEVNINNSVFRQYFFETKCRASNPVESGCRGIDSKHWNSYCTTTHTFVKALTTDEKQAAWRFIRIDTACVCVLSRKATRRG
notes: beta-nerve growth factor, mouse, the beta chain from submaxillary glands; The same protein was also tested after boiling (denatured), as a control; source: from mouse submaxillary glands; bought: Alomone Labs

Key:
[1] = target: Secreted protein, acidic and rich in cysteine (SPARC) (UniProt P09486); test: SPR; BIAcore X; SPARC immobilised on CM5 chip (3574 RU); growth factors as analytes in HBS-EP (10 mM HEPES, 150 mM NaCl, 0.005% Surfactant P20, pH 7.4), 37 °C, 20 µL/min, 105 s association, 120 s dissociation
[2] = target: Recombinant murine globular adiponectin (murine); test: SPR; BIAcore X; globular adiponectin immobilised on CM5 chip (12707 RU); growth factors as analytes in HBS-EP pH 7.4, 37 °C, 20 µL/min, 105 s association, 120 s dissociation
[3] = target: T1, Recombinant murine full-length …; test: SPR; BIAcore X; full length adiponectin immobilised on CM5 chip (2025 RU); growth factors as analytes in HBS-EP pH 7.4, 37 °C, 20 µL/min, 105 s association, 120 s dissociation; details: both partners purified

Chain of Secreted protein, acidic and rich in cysteine (SPARC) (P09486 18-303): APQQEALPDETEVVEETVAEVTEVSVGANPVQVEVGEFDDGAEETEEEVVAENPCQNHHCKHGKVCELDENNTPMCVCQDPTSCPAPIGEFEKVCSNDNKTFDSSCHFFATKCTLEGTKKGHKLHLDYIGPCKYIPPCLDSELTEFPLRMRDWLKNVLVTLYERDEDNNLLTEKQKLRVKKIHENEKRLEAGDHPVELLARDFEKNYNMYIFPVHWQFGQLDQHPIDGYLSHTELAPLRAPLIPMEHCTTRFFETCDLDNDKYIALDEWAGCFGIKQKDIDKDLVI

Molecule | Kd [1] | koff [1] | kon [1] | Kd [2] | koff [2] | kon [2] | Kd [3] | koff [3] | kon [3]
Recombinant human basic fibroblast growth factor (FGF2) (from UniProt P09038 143-288) (ligand) | 14400 nM | 0.00195 s⁻¹ | 135 M⁻¹ s⁻¹ | – | – | – | – | – | –
Recombinant human transforming growth factor β1 (TGFβ1) (from UniProt P01137 279-390) (ligand) | 24300 nM | 0.0192 s⁻¹ | 790 M⁻¹ s⁻¹ | – | – | – | – | – | –
Recombinant human vascular endothelial growth factor VEGF-165 (ligand) | 54.4 nM | 0.00413 s⁻¹ | 75800 M⁻¹ s⁻¹ | – | – | – | – | – | –
B1 | 24.3 nM | 0.000903 s⁻¹ | 37100 M⁻¹ s⁻¹ | 70.4 nM | 0.00738 s⁻¹ | 105000 M⁻¹ s⁻¹ | 24.5 nM | 2.82e-05 s⁻¹ | 1150 M⁻¹ s⁻¹
B2 | 59.4 nM | 0.011 s⁻¹ | 186000 M⁻¹ s⁻¹ | 1260 nM | 0.0145 s⁻¹ | 11500 M⁻¹ s⁻¹ | 103 nM | 0.00597 s⁻¹ | 57600 M⁻¹ s⁻¹
